Source: publication PMC7518282

Tested on: PAL
Test: plate RNA binding assay (RiboGreen), immobilized PAL
Settings: 12 mM HEPES/KOH pH 7.2, 135 mM KCl, 10 mM NaCl, 10% w/v glycerol, 0.5 mg/mL heparin, 0.5 mg/mL BSA, 25 C, 30 min, 465 nm light or dark, 100 or 1000 nM RNA

GGGAGGACGAUGCGGCCCGUACAGCAGCGAUGCGGGUCGCGUGUCCACCCCGGCUCAGACGACUCGCUGAGGAUCCGAGA [aptamer 53]
binding signal (% (normalization reference)) (blue light 465 nm): 100

GGGGUGGAAUCUUUACAGGACUAUCACGGUACAGCACCGAUGCCGGAUAGUCCUGUAAAGAUUCCACUU [SHCDK1m]
binding signal (% of aptamer 53 in light) (1000 nM RNA, dark (block inferred from row order), mean of 6 printed values): 1.35 | binding signal (% of aptamer 53 in light): 3.97
